Substrate in series [1]: Cc1cc(=O)oc2c(F)c(OP(=O)(O)O)c(F)cc12
Kind of series: fluorescent phosphatase assay, Michaelis-Menten. Particulars: 50 mM Hepes pH 7.0, 150 mM NaCl, 1 mM EDTA, 2 mM DTT, RT, 0.2 nM enzyme. In kind it is biochemical, Homo sapiens.

The target in series [2] is T1, PTPN21 PTP C1108S (UniProt Q16825 872-1174, C1108S).
T1 construct: also called PTP^PTPN21 C1108S; source: E. coli Rosetta (DE3), purified (as the wild type); not shown: His-sumo, N-terminal, cleaved
T1 sequence (looked up): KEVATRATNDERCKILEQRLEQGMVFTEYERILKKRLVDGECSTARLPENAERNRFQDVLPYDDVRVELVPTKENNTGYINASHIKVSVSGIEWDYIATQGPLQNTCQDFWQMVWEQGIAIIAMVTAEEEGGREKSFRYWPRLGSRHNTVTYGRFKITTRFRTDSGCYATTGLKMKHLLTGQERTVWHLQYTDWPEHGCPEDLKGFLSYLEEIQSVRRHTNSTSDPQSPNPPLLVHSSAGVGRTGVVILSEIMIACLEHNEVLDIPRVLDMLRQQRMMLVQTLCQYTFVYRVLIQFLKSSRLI
Kind of series: crystal structure; PTP C1108S with twofold molar excess of Src pY530 peptide, hanging drop, 4°C. Particulars: both partners purified.

For series [3], the target named is T2, PTPN21 PTP R1114Q (UniProt Q16825 872-1174, R1114Q).
T2 sequence: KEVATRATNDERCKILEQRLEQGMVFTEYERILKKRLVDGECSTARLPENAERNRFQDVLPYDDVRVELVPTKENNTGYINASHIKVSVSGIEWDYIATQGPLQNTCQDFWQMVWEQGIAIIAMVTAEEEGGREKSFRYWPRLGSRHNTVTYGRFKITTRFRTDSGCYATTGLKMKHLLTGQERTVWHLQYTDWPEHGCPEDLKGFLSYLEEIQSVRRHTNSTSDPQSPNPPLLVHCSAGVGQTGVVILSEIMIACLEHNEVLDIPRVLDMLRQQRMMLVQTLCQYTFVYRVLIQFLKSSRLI
Briefly: MST.

The target of series [4] is T3, PTPN21 PTP C1108S-EGFP (UniProt Q16825 872-1174, C1108S).
T3 sequence: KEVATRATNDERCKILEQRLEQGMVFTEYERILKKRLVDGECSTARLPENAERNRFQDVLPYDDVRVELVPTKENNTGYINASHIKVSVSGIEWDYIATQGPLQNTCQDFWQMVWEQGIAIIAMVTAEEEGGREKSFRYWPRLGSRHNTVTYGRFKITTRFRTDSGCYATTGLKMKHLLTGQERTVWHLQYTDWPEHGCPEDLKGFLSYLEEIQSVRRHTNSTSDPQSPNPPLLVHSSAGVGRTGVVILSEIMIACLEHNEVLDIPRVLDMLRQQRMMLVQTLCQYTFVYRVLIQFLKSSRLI
Briefly: MST.

The target of series [5] is T4, PTPN21 PTP E1067D C1108S-EGFP (UniProt Q16825 872-1174, E1067D | C1108S).
T4 sequence: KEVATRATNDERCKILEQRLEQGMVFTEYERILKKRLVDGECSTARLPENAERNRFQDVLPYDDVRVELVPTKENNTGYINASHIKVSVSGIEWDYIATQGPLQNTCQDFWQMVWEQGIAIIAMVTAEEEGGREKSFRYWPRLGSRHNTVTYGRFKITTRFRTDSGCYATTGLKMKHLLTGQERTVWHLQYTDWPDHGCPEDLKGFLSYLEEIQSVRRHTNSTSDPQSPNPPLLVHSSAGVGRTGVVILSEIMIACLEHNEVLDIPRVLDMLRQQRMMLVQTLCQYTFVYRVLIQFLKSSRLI
Briefly: MST.

The target of series [6] is T5, PTPN21 PTP E1067D C1108S-EGFP (UniProt Q16825 872-1174, E1067D | C1108S).
T5 construct: also called PTP^PTPN21 C1108S E1067D; source: E. coli Rosetta (DE3), purified (as the wild type); not shown: His-sumo, N-terminal, cleaved; EGFP, C-terminal, kept
T5 sequence (looked up): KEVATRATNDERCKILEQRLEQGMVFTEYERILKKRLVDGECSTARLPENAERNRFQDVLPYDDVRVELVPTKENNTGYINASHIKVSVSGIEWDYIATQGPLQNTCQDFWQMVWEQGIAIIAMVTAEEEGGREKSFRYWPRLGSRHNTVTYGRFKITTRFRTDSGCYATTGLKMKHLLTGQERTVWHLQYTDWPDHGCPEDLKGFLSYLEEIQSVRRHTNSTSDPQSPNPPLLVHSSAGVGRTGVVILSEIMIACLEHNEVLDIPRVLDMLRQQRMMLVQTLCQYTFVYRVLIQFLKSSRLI
Briefly: MST; fluorescent PTP mutant-EGFP (80 nM) mixed with an increasing amount of Src pY530 peptide; 20 mM Hepes pH 7.0, 150 mM NaCl, 0.3 mM TCEP, 1.5 mM BSA. Particulars: both partners purified.

Series [7] addresses T6, PTPN21 PTP R1114Q (UniProt Q16825 872-1174, R1114Q).
T6 construct: also called PTP^PTPN21 R1114Q; source: E. coli Rosetta (DE3), purified (as the wild type)
T6 sequence (looked up): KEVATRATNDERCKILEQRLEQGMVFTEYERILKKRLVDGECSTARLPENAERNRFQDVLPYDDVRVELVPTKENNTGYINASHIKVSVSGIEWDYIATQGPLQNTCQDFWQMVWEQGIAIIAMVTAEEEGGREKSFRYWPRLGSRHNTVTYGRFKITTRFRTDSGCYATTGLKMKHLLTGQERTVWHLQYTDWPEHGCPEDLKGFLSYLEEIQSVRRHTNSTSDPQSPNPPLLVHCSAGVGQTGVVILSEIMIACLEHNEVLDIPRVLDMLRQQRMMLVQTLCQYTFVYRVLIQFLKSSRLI
Described as above. Particulars: both partners purified.

In series [8] the target is T7, PTPN21 PTP C1108S-EGFP (UniProt Q16825 872-1174, C1108S).
T7 construct: also called PTP^PTPN21 C1108S; source: E. coli Rosetta (DE3), purified (as the wild type); not shown: His-sumo, N-terminal, cleaved; EGFP, C-terminal, kept
T7 sequence (looked up): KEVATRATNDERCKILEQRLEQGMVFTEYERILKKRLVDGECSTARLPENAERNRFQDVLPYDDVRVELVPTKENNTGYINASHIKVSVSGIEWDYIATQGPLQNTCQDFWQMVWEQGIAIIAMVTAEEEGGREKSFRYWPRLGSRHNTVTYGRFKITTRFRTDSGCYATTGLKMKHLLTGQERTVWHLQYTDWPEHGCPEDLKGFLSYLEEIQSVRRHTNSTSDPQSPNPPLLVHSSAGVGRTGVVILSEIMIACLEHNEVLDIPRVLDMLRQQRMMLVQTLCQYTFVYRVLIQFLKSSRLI
The description is as above. Particulars: both partners purified.

The target of series [9] is T8, mini PTPN21-EGFP (UniProt Q16825 878-1174; Q16825 878-1174).
T8 chain: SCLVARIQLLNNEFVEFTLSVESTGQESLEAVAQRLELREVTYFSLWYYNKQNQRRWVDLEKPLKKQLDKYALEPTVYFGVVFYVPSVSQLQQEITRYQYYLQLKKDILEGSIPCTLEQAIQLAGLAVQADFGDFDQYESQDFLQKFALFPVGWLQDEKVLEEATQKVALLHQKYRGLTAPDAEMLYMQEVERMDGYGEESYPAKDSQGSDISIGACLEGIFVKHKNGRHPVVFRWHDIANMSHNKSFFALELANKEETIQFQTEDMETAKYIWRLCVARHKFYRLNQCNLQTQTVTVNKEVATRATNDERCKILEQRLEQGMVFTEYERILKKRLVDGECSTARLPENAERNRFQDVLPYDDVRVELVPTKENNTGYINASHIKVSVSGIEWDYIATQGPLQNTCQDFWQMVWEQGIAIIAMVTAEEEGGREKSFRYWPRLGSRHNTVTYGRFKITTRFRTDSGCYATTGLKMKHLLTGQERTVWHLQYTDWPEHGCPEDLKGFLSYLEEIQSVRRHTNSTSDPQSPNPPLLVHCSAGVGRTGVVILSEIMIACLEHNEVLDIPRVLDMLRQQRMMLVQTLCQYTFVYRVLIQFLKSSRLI
Kind of series: MST; + Ins(1,3)P2.

In series [10] the target is T8, mini PTPN21-EGFP. Briefly: MST.
Series [11] concerns the target T1, PTPN21 PTP C1108S. Briefly: crystal structure; mini PTPN21 C1108S: FERM and PTP joined on one chain by a flexible linker, hanging drop, 4°C. Particulars: both partners purified.
The target of series [12] is T9, PTPN21 PTP-EGFP (UniProt Q16825 872-1174).
T9 construct: also called WT PTP-EGFP; source: E. coli Rosetta (DE3), purified (as the untagged domain); not shown: His-sumo, N-terminal, cleaved; EGFP, C-terminal, kept
T9 sequence (looked up): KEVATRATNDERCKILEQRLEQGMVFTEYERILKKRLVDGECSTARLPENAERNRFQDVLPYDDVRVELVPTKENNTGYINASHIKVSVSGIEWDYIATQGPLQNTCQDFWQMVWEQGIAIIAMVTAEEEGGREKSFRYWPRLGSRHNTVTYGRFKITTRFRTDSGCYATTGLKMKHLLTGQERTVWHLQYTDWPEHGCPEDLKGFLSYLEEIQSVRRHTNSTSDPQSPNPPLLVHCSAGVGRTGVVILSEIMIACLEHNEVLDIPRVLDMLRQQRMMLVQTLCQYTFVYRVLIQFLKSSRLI
Kind of series: MST; PTP-EGFP fixed at 80 nM, FERM titrated from 300 μM to 0.09 nM; 20 mM Hepes pH 7.0, 150 mM NaCl, 0.3 mM TCEP, 1.5 mM BSA; mutants measured similarly. Conditions: both partners purified.

Series [13] addresses T9, PTPN21 PTP-EGFP. Kind of series: MST. Conditions: both partners purified.

Where no end group is shown, it is not given here. [ ]: non-standard residue; d: D form. pY = N[C@@H](Cc1ccc(OP(=O)(O)O)cc1)C(=O)O

B1: PTPN21 PTP domain (PTP^PTPN21) (Homo sapiens; E1067D) (protein)
chain: KEVATRATNDERCKILEQRLEQGMVFTEYERILKKRLVDGECSTARLPENAERNRFQDVLPYDDVRVELVPTKENNTGYINASHIKVSVSGIEWDYIATQGPLQNTCQDFWQMVWEQGIAIIAMVTAEEEGGREKSFRYWPRLGSRHNTVTYGRFKITTRFRTDSGCYATTGLKMKHLLTGQERTVWHLQYTDWPDHGCPEDLKGFLSYLEEIQSVRRHTNSTSDPQSPNPPLLVHCSAGVGRTGVVILSEIMIACLEHNEVLDIPRVLDMLRQQRMMLVQTLCQYTFVYRVLIQFLKSSRLI
notes: PTP (phosphatase) domain, residues 872 to 1174; E. coli Rosetta (DE3), His-sumo tag removed
In the case of B1, in [1], the Km – broadly, the concentration of substrate that gives half-maximal velocity – was determined as 250.93 ± 15.69 µM and the kcat (commonly the maximal rate divided by the concentration of active sites) is 38.32 ± 4.66 s⁻¹.

B2: Src pY530 peptide (peptide)
peptide: STEPQ[pY]QPGENL
notes: also called Src pY530 synthetic peptide; Peptide Src pY530; source: synthetic peptide (ChinaPeptides Co. Ltd.)
Consider B2, for which the binding result in series [2], in [6], in series [7] and in series [8] was “binds” each time. Moreover, the Kd (in general, the free concentration of one partner at which half of the binding sites on the other are occupied at equilibrium, for simple one-to-one binding) in series [3] worked out at 6230 nM; in [4] it was 2930 nM; in series [5] it was 5610 nM.

B3: HPV18 E7 protein, full length (natural protein)
chain: MHGPKATLQDIVLHLEPQNEIPVDLLCHEQLSDSEEENDEIDGVNHQHLPARRAEPQRHTMLCMCCKCEARIKLVVESSADDLRAFQQLFLNTLSFVCPWCASQQ
Regarding B3, the Kd was 352 nM in [9] and 215 nM in series [10].

B4: PTPN21 FERM domain (residues 21 to 319) (domain or fragment, UniProt Q16825 21-319, looked up)
chain: SCLVARIQLLNNEFVEFTLSVESTGQESLEAVAQRLELREVTYFSLWYYNKQNQRRWVDLEKPLKKQLDKYALEPTVYFGVVFYVPSVSQLQQEITRYQYYLQLKKDILEGSIPCTLEQAIQLAGLAVQADFGDFDQYESQDFLQKFALFPVGWLQDEKVLEEATQKVALLHQKYRGLTAPDAEMLYMQEVERMDGYGEESYPAKDSQGSDISIGACLEGIFVKHKNGRHPVVFRWHDIANMSHNKSFFALELANKEETIQFQTEDMETAKYIWRLCVARHKFYRLNQCNLQTQTVTVN
notes: also called FERM^PTPN21; source: E. coli Rosetta (DE3), purified (Ni-NTA, source Q, Superdex 200); not shown: His-sumo, N-terminal, cleaved
Regarding B4, the binding result in [11] is “binds”. The molecule further registered a Kd in [12] of about 7600 nM.

B5: HPV18 E7 CR3 domain (domain or fragment)
chain: AEPQRHTMLCMCCKCEARIKLVVESSADDLRAFQQLFLNTLSFVCPWCASQQ
notes: source: E. coli Rosetta (DE3), purified (as the PTPN21 domains); not shown: His-sumo, N-terminal, cleaved
As for B5, the results for the Kd in series [9] and in [13] were 40.3 nM and about 2.8 nM, respectively.

Source of the values: paper PMC10901363 (Science Advances, 2024).
